Laboratory results published in publication PMC5703890, “Involvement of cecropin B in the formation of the Aedes aegypti mosquito cuticle”.

T1: Aacec B (cecropin B) peptide (Aedes aegypti)
T1 sequence: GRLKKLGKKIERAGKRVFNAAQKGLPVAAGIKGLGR

T2: Aacec B (cecropin B) peptide (Aedes aegypti)
T2 chain: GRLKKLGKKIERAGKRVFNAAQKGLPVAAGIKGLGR


Test system: T1, Aacec B (cecropin B) peptide (Aedes aegypti)
Test: pull-down
Conditions: not given

| Molecule | binding |
| --- | --- |
| ATAACGAGAAATGATTTGGCTGTGCATATAGTAGAAAAGTTCACCACGGCGATCTTTCTTAGCAATTTCCGGTGGCGCCCCAGCAGGATACACTAAATGCCAGTGCCAATGGTGCATGTTGACTCCGATGTCCTCACGGAAGTATGCCAT (double strand) [Cu A fragment] | binds |
| GCCTACATTCACGATCCTGAGTATCGGTACTTGGAAGATTTTGGAGTAATGGG (double strand) [Cu B2 fragment] | binds |
| CTCCGCAAAGGCAAGATCCGGGATTCCAACATTTCGAACCGGAATTTCGACCTCCGCGCCACTCGTGAACCTGCTCTGCAAATCGCCAGCTAACGGACGATAACGATCACTCAAATACTCGTCCGGAATTATGAGCGATGTTTTACCATCGTCCTTTGGCATAAACGATGGCTCCAGAGGGCGTTGCAGAAGCGCTTGGAAAGATTTACTCTCAGCCATCTTTTAACAACAAAACAATGCGTTTCCGTACGATAGCTATCGATTGGAGATTGG (double strand) [5' end-1 fragment] | binds |
| GTTAGCTGGCGATTTGCAGAGCAGGTTCACGAGTGGCGCGGAGGTCGAAATTCCGGTTCGAAATGTTGGAATCCCGGATCTTGCCTTTGCGGAG (double strand) [5' end-1-2 fragment] | binds |
| TGACGTGACAACGGCAATGCGTGATCCTGTGTTCTATCGTTGGCACGGAATGATCGATGGCTTGT (double strand) [Cu B3 fragment] | binds |
| AACAAGCCATCGATCATTCCGTGCCAACGATAGAACACAGGATCACGCATTGCCGTTGTCACGTCACCCATTACTCCAAAATCTTCCAAGTACCGATACTCAGGATCGTGAATGTAGGCCAAAAAATCATGTCCAAAGTTATGCAAACTCCCATACAACCTCCTGTTGACGGAAAGCGTGGAAGCTTCAACCAAGTCACCTAAAAT (double strand) [Cu B fragment] | binds |
| ATGGCATACTTCCGTGAGGACATCGGAGTCAACATGCACCATTGGCACTGGCATTTAGT (double strand) [Cu A1 fragment] | binds |

Molecular target: T2, Aacec B (cecropin B) peptide
Test: EMSA; EMSA: 6% native polyacrylamide gel, LightShift chemiluminescent kit; buffer, salt, pH and temperature not given in the material (cited to earlier work)
Conditions: tags: none stated for EMSA; conjugated to beads for pull-down; label: biotin; blunt

| Molecule | binding result |
| --- | --- |
| nucleotide replacement 3 ((A/C)A to TA) (dsDNA) DNA 1: TCGAAATGTTGGTATCCCGG DNA 2: CCGGGATACCAACATTTCGA | no binding |
| nucleotide replacement 4 ((A/C)A to CG) (dsDNA) DNA 1: TCGAAATGTTGGCGTCCCGG DNA 2: CCGGGACGCCAACATTTCGA | no binding |
| nucleotide replacement 1 (TT to CC) (dsDNA) DNA 1: TCGAAATGCCGGAATCCCGG DNA 2: CCGGGATTCCGGCATTTCGA | no binding |
| nucleotide replacement 2 (GG to TA) (dsDNA) DNA 1: TCGAAATGTTTAAATCCCGG DNA 2: CCGGGATTTAAACATTTCGA | no binding |

Molecular target: T2, Aacec B (cecropin B) peptide
Test: EMSA; 1 ng peptide; EMSA: 6% native polyacrylamide gel, LightShift chemiluminescent kit; buffer, salt, pH and temperature not given in the material (cited to earlier work)
Conditions: tags: none stated for EMSA; conjugated to beads for pull-down; label: biotin end label; blunt

| Molecule | binding result |
| --- | --- |
| AaPPO 3-5' end-1-2 oligo (TTGGAA) (dsDNA) DNA 1: GTTCGAAATGTTGGAATCCCGGATC DNA 2: GATCCGGGATTCCAACATTTCGAAC | binds |
| AaPPO 3-Cu A1 oligo (TTGGCA) (dsDNA) DNA 1: CATGCACCATTGGCACTGGCATTTA DNA 2: TAAATGCCAGTGCCAATGGTGCATG | binds |
| AaPPO 3-Cu B2 oligo (TTGGAA) (dsDNA) DNA 1: GAGTATCGGTACTTGGAAGATTTTG DNA 2: CAAAATCTTCCAAGTACCGATACTC | binds |
| AaPPO 3-Cu B3 oligo (TTGGCA) (dsDNA) DNA 1: GTTCTATCGTTGGCACGGAATGATC DNA 2: GATCATTCCGTGCCAACGATAGAAC | binds |
